Test in all cases: AlphaScreen or HTRF
In general terms: In Alpha technology, singlet oxygen from a donor bead excites a nearby acceptor bead.

The target in test [1] is Recombinant human FGF2 (fibroblast growth factor-2), biotinylated (human, biotin (sulfo-NHS-biotin)).
For test [2], the target named is Vitronectin (VN), biotinylated (UniProt P04004 20-478, biotin (sulfo-NHS-biotin)).
Test [3] has as its target T1, FGFR1, biotinylated (UniProt P11362 22-822, biotin (sulfo-NHS-biotin)).
T1 chain: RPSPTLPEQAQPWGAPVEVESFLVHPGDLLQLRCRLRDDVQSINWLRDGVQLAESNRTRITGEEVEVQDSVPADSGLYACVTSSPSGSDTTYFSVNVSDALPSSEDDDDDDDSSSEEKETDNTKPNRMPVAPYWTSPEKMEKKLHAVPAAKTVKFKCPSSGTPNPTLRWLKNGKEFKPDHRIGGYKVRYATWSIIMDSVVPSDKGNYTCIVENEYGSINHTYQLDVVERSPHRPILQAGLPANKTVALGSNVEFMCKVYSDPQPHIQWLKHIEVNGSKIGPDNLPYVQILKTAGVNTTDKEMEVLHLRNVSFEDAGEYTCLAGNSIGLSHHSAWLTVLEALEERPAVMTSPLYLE

For test [4], the target named is T1, FGFR1, biotinylated.

Sequence of Vitronectin (VN), biotinylated (P04004 20-478): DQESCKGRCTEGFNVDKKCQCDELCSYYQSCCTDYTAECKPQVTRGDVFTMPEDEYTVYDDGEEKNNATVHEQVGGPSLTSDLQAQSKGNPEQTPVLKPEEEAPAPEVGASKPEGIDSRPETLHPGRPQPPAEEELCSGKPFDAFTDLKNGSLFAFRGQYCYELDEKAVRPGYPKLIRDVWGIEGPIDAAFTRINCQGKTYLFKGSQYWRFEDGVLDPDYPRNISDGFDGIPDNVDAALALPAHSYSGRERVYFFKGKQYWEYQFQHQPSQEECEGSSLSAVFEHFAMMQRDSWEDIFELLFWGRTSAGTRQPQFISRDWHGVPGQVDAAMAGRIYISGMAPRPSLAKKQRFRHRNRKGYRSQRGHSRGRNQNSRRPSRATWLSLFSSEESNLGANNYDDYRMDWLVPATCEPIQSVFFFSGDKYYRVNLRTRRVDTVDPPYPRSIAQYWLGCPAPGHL

B1: SDC1_(45,47HEP): murine syndecan-1 ectodomain with heparin conjugated at residues 45 and 47 (domain or fragment)
chain: QIVAVNVPPEDQDGSGDDSDNFYGYGTGALPDTLSRQTPSTWKDVWLLTATPTAPEPTSSNTETAFTSVLPAGEKPEEGEPVLHVEAEPGFTARDKEKEVTTRPRETVQLPITQRASTVRVTTAQAAVTSHPHGGMQPGLHETSAPTAPGQPDHQPPRVEGGGTSVIKEVVEDGTANQLPAGEGSGEQDFTFETSGENTAVAAVEPGLRNQPPVDEGATGASQSLLDRKEVLG
modifications: p-propargyltyrosine (pPY) at 45 and 47, each joined by CuAAC to azido-heparin (azHEP)
One may read the EC50 as the concentration at which the effect is half-maximal. For B1, the EC50 in test [1] is 300 pM; in test [2], 800 pM; with FGFR1, biotinylated [3] it was 400 pM. The “EC50 of ternary complex formation with soluble non-tagged FGF2” value (shortened to “EC50 … with soluble non-tagged FGF2”) with FGFR1, biotinylated [4] stood at 4 pM.

B2: SDC1_(37,45,47HEP): murine syndecan-1 ectodomain with heparin conjugated at residues 37, 45 and 47 (domain or fragment)
chain: QIVAVNVPPEDQDGYGDDSDNFYGYGTGALPDTLSRQTPSTWKDVWLLTATPTAPEPTSSNTETAFTSVLPAGEKPEEGEPVLHVEAEPGFTARDKEKEVTTRPRETVQLPITQRASTVRVTTAQAAVTSHPHGGMQPGLHETSAPTAPGQPDHQPPRVEGGGTSVIKEVVEDGTANQLPAGEGSGEQDFTFETSGENTAVAAVEPGLRNQPPVDEGATGASQSLLDRKEVLG
modifications: p-propargyltyrosine (pPY) at 37, 45 and 47, each joined by CuAAC to azido-heparin (azHEP)
Turning to B2, the EC50 in test [1] was 300 pM; in test [2], 500 pM; with FGFR1, biotinylated [3] it was 300 pM. Besides, in the test with FGFR1, biotinylated [4], the “EC50 … with soluble non-tagged FGF2” value was found to be 8 pM.

B3: mSDC1: commercial glycosylated, mammalian expressed recombinant mouse SDC1 ectodomain (domain or fragment, UniProt P18828 23-255, looked up)
chain: QIVAVNVPPEDQDGSGDDSDNFSGSGTGALPDTLSRQTPSTWKDVWLLTATPTAPEPTSSNTETAFTSVLPAGEKPEEGEPVLHVEAEPGFTARDKEKEVTTRPRETVQLPITQRASTVRVTTAQAAVTSHPHGGMQPGLHETSAPTAPGQPDHQPPRVEGGGTSVIKEVVEDGTANQLPAGEGSGEQDFTFETSGENTAVAAVEPGLRNQPPVDEGATGASQSLLDRKEVLG
modifications: native GAG chains from the mammalian host (CS predominant over HS by the paper's disaccharide analysis)
For the molecule B3, the EC50 in test [2] was greater than 100000 pM; in the test with FGFR1, biotinylated [3], greater than 20000 pM. In addition, in the test with FGFR1, biotinylated [4], the “EC50 … with soluble non-tagged FGF2” value is 4000 pM.

Values taken from article PMC9205196 (Nature chemical biology, 2022).
